For assay [1], the target named is T1, human ZNRF3 extracellular domain (hZNRF3 ECD) (human, UniProt Q9ULT6 56-219, biotinylated (His-Avi tag)).
T1 construct: Expressed with a His-Avi tag at the N-terminus and biotinylated; also called ZRNF3
T1 sequence: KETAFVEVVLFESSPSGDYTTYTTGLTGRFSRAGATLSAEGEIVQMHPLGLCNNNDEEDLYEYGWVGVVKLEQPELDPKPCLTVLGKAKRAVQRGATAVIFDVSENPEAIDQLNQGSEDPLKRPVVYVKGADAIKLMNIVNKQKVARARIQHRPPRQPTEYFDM
Nature of the assay: BLI (Octet) KD grade: *** = 100 nM > KD. As for the experimental part: (§1) Binding characterization of recombinant Fabs or IgG' s was carried out using Bio-Layer Interferometry (BLI) using the Octet Red 96 platform (PALL ForteBio, Fremont, Calif.) with streptavidin (SA) coated biosensors (PALL ForteBio,). […] Following immobilization, sensors were dipped into samples containing test molecules at seven concentrations. Values for KD were determined by fitting the resulting data with a 1:1 binding model.
Background: In BLI a coated tip is dipped into the sample, and binding shifts an interference pattern.

Assay [2] addresses T1, human ZNRF3 extracellular domain …. Nature of the assay: BLI (Octet), biotinylated antigen on SA sensor, 1:1 fit. The protocol: as §1
The target is the same in assay [3]. Nature of the assay: BLI (Octet) KD grade: ** = 1 uM > KD >= 100 nM. As for the experimental part: as §1
Assay [4] deals with T2, human RNF43 extracellular domain (hRNF43 ECD) (human, UniProt Q68DV7 44-197, biotinylated (His-Avi tag)).
T2 construct: Expressed with a His-Avi tag at the N-terminus and biotinylated; also called human RNF3 (Q44-D198)
T2 sequence: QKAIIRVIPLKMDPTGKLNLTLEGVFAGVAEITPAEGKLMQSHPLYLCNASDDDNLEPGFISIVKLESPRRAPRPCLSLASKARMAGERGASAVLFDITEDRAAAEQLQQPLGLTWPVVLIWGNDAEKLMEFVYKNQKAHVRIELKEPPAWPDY
Nature of the assay: ELISA (binding specificity).

Assay [5] deals with T1, human ZNRF3 extracellular domain …. In words: BLI (Octet) KD grade: * = KD >= 1 uM. The protocol:
as §1

Some results are limits rather than exact numbers.

B1: 028S-H04 (antibody, V domains shown)
VH: QVQLVQSGAEVKKPGASVKVSCKASGYTFIGYYMHWVRQAPGQGLEWLGWVNPKNGHTGYAQKFQGRVTMTRDTSTSTVYMELSSLRSEDTAVYYCAKDLEHTGYSSGWAGFDYWGQGTLVTVSS
VL: not shown
For orientation: KD means the free concentration of one partner at which half of the binding sites on the other are occupied at equilibrium, for simple one-to-one binding. A higher KD goes with lower affinity. The term Kd denotes the concentration at which binding is half-saturated. Read a high Kd as lower affinity. As for B1, in assay [1], the KD was below 100 nM. In assay [2], binding was characterised by a dissociation constant (Kd) of 48 nM.

B2: 028S-A11 (antibody, V domains shown)
VH: QVQLVQSGAEVKKPGASVKVSCKASGGTFSGYYMHWVRQAPGQGLEWMGWINPNRGGTSYAQNFQGRVTMTRDTSTSTVYMELSSLRSEDTAVYYCARGMYSSSWLRYWGQGTLVTVSS
VL: DIQMTQSPSSLSASVGDRVTITCRASQGISNYLAWYQQKPGKAPKLLIYAASSLQSGVPSRFSGSGSGTDFTLTISSLQPEDFATYYCQQGSSFPLTFGQGTKVDIK
B2: the dissociation constant (Kd) in assay [2] is 203 nM. In assay [3], this molecule yielded a KD of 100 to 1000 nM.

B3: 028S-B01 (antibody, V domains shown)
VH: QVQLVQSGAEVKKPGASVKVSCKASGYTFTAYYMHWVRQAPGQGLEWMGIINPNGGRTTYAQKFQGRVTMTRDTSTSTVYMELSSLRSEDTAVYYCARSFGVAGTLDYWGQGTLVTVSS
VL: DIVMTQSPLSLPVTPGEPASISCRSSQSLLHSNGYNYLDWYLQKPGQSPQLLIYDASNLETGVPDRFSGSGSGTDFTLKISRVEAEDVGVYYCMQTLHTPYTFGQGTKLEIK
Regarding B3, the binding result in assay [4] is recorded as “binds”.

B4: 028S-B06 (antibody, V domains shown)
VH: QVQLVQSGAEVKKPGASVKVSCKASGYRFTNYYMHWVRQAPGQGLEWMGWISPNSGATNYAQNFQGRVTMTRDTSTSTVYMELSSLRSEDTAVYYCARGGRTTVTTMAYWGQGTLVTVSS
VL: DIVMTQSPLSLPVTPGEPASISCRSSQSLLHSNGYNYLDWYLQKPGQSPQLLIYGASSLQSGVPDRFSGSGSGTDFTLKISRVEAEDVGVYYCMQGTHWPRTFGQGTKVDIK
In assay [2], B4 had a Kd of 764 nM. Moreover, in assay [3], the KD is 100 to 1000 nM.

B5: 028S-G06 (antibody, V domains shown)
VH: EVQLLESGGGLVQPGGSLRLSCAASGFAFSNFAMIWVRQAPGKGLEWVSAISGSGGSTYYADSVKGRFTISRDNSKNTLYLQMNSLRAEDTAVYYCARLRANYGMDVWGQGTTVTVSS
VL: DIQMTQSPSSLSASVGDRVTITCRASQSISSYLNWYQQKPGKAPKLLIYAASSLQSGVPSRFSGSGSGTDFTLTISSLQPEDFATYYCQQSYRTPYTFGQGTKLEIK
In turn, B5 returned a Kd in assay [2] of 109 nM. This molecule came in with a dissociation constant (KD) in assay [3] of 100 to 1000 nM.

B6: 028S-A04 (antibody, V domains shown)
VH: QVQLVQSGAEVKKPGASVKVSCKASGYTFTNYKMHWVRQAPGQGLEWMGKINPSSGSTSYAQKFQGRVTMTRDTSTSTVYMELSSLRSEDTAVYYCARSGAGMWYFDLWGRGTLVTVSS
VL: DIQMTQSPSSLSASVGDRVTITCRASQDIYRYLNWYQQKPGKAPKLLIFAASSLHSGVPSRFSGSGSGTDFTLTISSLQPEDFATYYCQQSYTTPITFGQGTKVEIK
B6 had a KD in assay [1] below 100 nM. The affinity in assay [2], expressed as Kd, was 36.2 nM.

B7: 028S-G01 (antibody, V domains shown)
VH: QVQLVQSGAEVKKPGASVKVSCKASGYTFTNYYMHWVRQAPGQGLEWMGWINPHSGGTNYAQKFQGRVTMTRDTSTSTVYMELSSLRSEDTAVYYCAREDYNWNDGWFDPWGQGTLVTVSS
VL: DIQMTQSPSSLSASVGDRVTITCRASENIHKYLNWYQQKPGKAPKLLIYAASSLQSGVPSRFSGSGSGTDFTLTISSLQPEDFATYYCQQGYSTPYTFGQGTKLEIK
On to B7, for which the binding result in assay [4] is “binds”.

B8: 028S-E04 (antibody, V domains shown)
VH: EVQLLESGGGLVQPGGSLRLSCAASGFTFNNFGMSWVRQAPGKGLEWVSGISASGRNTYYADSVKGRFTISRDNSKNTLYLQMNSLRAEDRAVYYCARETRHGSDYWGQGTLVTVSS
VL: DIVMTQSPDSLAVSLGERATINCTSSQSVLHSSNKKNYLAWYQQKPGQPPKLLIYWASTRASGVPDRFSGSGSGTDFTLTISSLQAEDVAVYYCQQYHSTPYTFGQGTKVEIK
B8 yielded a KD in assay [1] below 100 nM. The same molecule displayed a dissociation constant Kd in assay [2] of 95.3 nM.

B9: 020S-E06 (antibody, V domains shown)
VH: QVQLVQSGAEVKKPGASVKVSCKASGYTFTGYYMHWVRQAPGQGLEWMGIINPSGGSTSYAQKFQGRVTMTRDTSTSTVYMELSSLRSEDTAVYYCARGRQGVWDYWGRGTLVTVSS
VL: DIQMTQSPSSLSASVGDRVTITCRSSQSIRTYLNWYQQKPGKAPKLLIYAASTLQSGVPSRFSGSGSGTDFTLTISSLQPEDFATYYCQQANSFPITFGGGTKVEIK
On to B9, for which the binding result in assay [4] is on record as “binds”.

B10: 028S-D04 (antibody, V domains shown)
VH: QVQLVQSGAEVKKPGASVKVSCKASGGTFSSYAISWVRQAPGQGLEWMGRISPNRGGTKYAQKFQGRVTMTRDTSTSTVYMELSSLRSEDTAVYYCARDSWLRGAWGYWGQGTLVTVSS
VL: DIQMTQSPSSLSASVGDRVTITCRASQSISRWLAWYQQKPGKAPKLLIYAASTLQSGVPSRFSGSGSGTDFTLTISSLQPEDFATYYCQQSFSTPYTFGQGTKVEIK
B10 showed a dissociation constant (Kd) in assay [2] of 874 nM. This molecule also showed a KD in assay [3] of 100 to 1000 nM.

B11: 028S-B04 (antibody, V domains shown)
VH: QVQLVQSGAEVKKPGASVKVSCKASGYTFRRYPMHWVRQAPGQGLEWMGIINPSGGSTSYAQKFQGRVTMTRDTSTSTVYMELSSLRSEDTAVYYCARDKVGAIDYWGQGTLVTVSS
VL: DIQMTQSPSSLSASVGDRVTITCRASQGISNYLAWYQQKPGKAPKLLIYAASSLQRGVPSRFSGSGSGTDFTLTISSLQPEDFATYYCQQSYSTPLTFGGGTKVEIK
As to B11, in assay [2], the Kd came to 256 nM. The equilibrium dissociation constant (KD) in assay [3] lay in the range of 100 to 1000 nM.

B12: 028S-C04 (antibody, V domains shown)
VH: QVQLVQSGAEVKKPGASVKVSCKASGYTFTRYYMHWVRQAPGQGLEWMGIINPSGGSTSYAQKFQGRVTMTRDTSTSTVYMELSSLRSEDTAVYYCARGGSGWLDYWGQGTLVTVSS
VL: DIQMTQSPSSLSASVGDRVTITCRASQSISTWLAWYQQKPGKAPKLLIYAASTLQSGVPSRFSGSGSGTDFTLTISSLQPEDFATYYCQQSYSSPLTFGGGTKVEIK
In assay [2], B12 had a Kd of 164 nM. The molecule also yielded a KD in assay [3] of 100 to 1000 nM.

B13: 020S-F06 (antibody, V domains shown)
VH: QVQLVQSGAEVKKPGASVKVSCKASGYTFTSYYLHWVRQAPGQGLEWMGWMNPNSGNTGYAQNFQGRVTMTRDTSTSTVYMELSSLRSEDTAVYYCARGDFWSGYYPYYYYYYGMDVWGQGTTVTVSS
VL: DIQMTQSPSSLSASVGDRVTITCRVSQGISSYLNWYQQKPGKAPKLLIYAASTLQSGVPSRFSGSGSGTDFTLTISSLQPEDFATYYCQQSYGAPLTFGQGTKVEIK
In the case of B13, the binding result in assay [4] is “binds”.

B14: 028S-D09 (antibody, V domains shown)
VH: QVQLVQSGAEVKKPGASVKVSCKASGYTFTRHYMHWVRQAPGQGLEWMGIINPSGGSTSYAQKFQGRVTMTRDTSTSTVYMELSSLRSEDTAVYYCARGSLGYFDLWGRGTLVTVSS
VL: not shown
As to B14, in assay [2], the Kd stood at 354 nM. The molecule also displayed an equilibrium dissociation constant (KD) in assay [3] of 100 to 1000 nM.

B15: 028S-B07 (antibody, V domains shown)
VH: QVQLVQSGAEVKKPGASVKVSCKASGYTFTEYYMHWVRQAPGQGLEWMGWMNPNSGHAGSAQKFQGRVTMTRDTSTSTVYMELSSLRSEDTAVYYCARGRRSGLSPPAYWGQGTLVTVSS
VL: EIVMTQSPATLSVSPGERATLSCRASQSVSASLAWYQQKPGQAPRLLIYGASTRATGIPARFSGSGSGTEFTLTISSLQSEDFAVYYCHQYFSPPMTFGQGTRLEIK
In the case of B15, in assay [1], the KD was below 100 nM. The Kd in assay [2] turned out to be 65.4 nM.

B16: 028S-G10 (antibody, V domains shown)
VH: QVQLVQSGAEVKKPGASVKVSCKASGYTFTSYGVSWVRQAPGQGLEWMGIINPRGGSTSYAQNFQGRVTMTRDTSTSTVYMELSSLRSEDTAVYYCARYSSSWSWPFDYWGQGTLVTVSS
VL: DIQMTQSPSSLSASVGDRVTITCRASQGISNNLNWYQQKPGKAPKLLIYAASTLQSGVPSRFSGSGSGTDFTLTISSLQPEDFATYYCQQSYSTPTFGQGTKVEIK
As to B16, the Kd in assay [2] was 684 nM. In assay [3], the dissociation constant KD lay within 100 to 1000 nM.

B17: 028S-D02 (antibody, V domains shown)
VH: QVQLQQSGPGLVKPSQTLSLTCAISGDSVSSNSAAWYWIRQSPSRGLEWLGRTYYRSKWYHDYAVSVKSRITINADTSKNQFSLQLNSVTPEDTAVYYCARVVRAVDAFDIWGQGTMVTVSS
VL: ETTLTQSPGTLSLSPGERATLSCRASQSVNSRYLAWYQQKPGQAPRLLIYGASSRATGIPDRLTGSGSGTDFTLTISRLEPEDFAVYYCQQYGSSRLTFGGGTKVEIK
Consider B17, for which, in assay [5], the KD is at least 1000 nM. In assay [2], this molecule registered a Kd of 3320 nM.

B18: 024S-A02 (antibody, V domains shown)
VH: EVQLVQSGAEVKKPGASVKVSCKASGYTFTSYAMHWVRQAPGQRLEWMGWINAGNGNTKYSQTFQGRVTITRDTSASTAYMELSSLRSEDTAVYYCARDLMVRGGPPFDYWGQGTLVTVSS
VL: not shown
Turning to B18, in assay [4], the binding result is on record as “binds”.

B19: 028S-C03 (antibody, V domains shown)
VH: QVQLVQSGAEVKKPGASVKVSCKASGYTFSRYFMHWVRQAPGQGLEWMGWINPNSGGTRYAQNLQGRVTMTRDTSTSTVYMELSSLRSEDTAVYYCARDQKGKSSSWFRFDPWGQGTLVTVSS
VL: not shown
With B19, in assay [1], the KD is below 100 nM. The equilibrium dissociation constant (Kd) in assay [2] was 25.1 nM.

Source of the values: US20210380678A1 (SURROZEN OPERATING, published 2021).
